These results are taken from paper PMC11348030, “mTORC1 phosphorylates and stabilizes LST2 to negatively regulate EGFR” (Proceedings of the National Academy of Sciences of the …, 2024).

Assay [1] has as its target T1, regulatory-associated protein of mTOR (RAPTOR) (UniProt Q8N122 1-1335).
T1 construct: RAPTOR, regulatory-associated protein of mTOR; purified protein; Construct, host and tags are in SI Appendix, Material and Methods; In the cryo-EM rows RAPTOR stood as a subunit of mTORC1; source: purified
Briefly: co-IP; coimmunoprecipitation with purified RAPTOR and purified full-length LST2 (WT or F401A); blot quantified, N = 3. As to conditions: both partners purified.

The target in assay [2] is T1, regulatory-associated protein of mTOR …. Briefly: fluorescence polarisation; fluorescence anisotropy; purified RAPTOR with N-terminally FITC-labeled synthetic LST2 TOS peptides; N = 3. As to conditions: both partners purified. For orientation: Fluorescence polarisation rises when a labelled molecule tumbles more slowly, as on binding a larger partner.

Where no end group is shown, it is not given here. The star is where a group is joined. FITC = O=C1OC2(c3ccc(O)cc3Oc3cc(O)ccc32)c2ccc(NC(=S)*)cc21

T1 sequence (Q8N122 whole entry): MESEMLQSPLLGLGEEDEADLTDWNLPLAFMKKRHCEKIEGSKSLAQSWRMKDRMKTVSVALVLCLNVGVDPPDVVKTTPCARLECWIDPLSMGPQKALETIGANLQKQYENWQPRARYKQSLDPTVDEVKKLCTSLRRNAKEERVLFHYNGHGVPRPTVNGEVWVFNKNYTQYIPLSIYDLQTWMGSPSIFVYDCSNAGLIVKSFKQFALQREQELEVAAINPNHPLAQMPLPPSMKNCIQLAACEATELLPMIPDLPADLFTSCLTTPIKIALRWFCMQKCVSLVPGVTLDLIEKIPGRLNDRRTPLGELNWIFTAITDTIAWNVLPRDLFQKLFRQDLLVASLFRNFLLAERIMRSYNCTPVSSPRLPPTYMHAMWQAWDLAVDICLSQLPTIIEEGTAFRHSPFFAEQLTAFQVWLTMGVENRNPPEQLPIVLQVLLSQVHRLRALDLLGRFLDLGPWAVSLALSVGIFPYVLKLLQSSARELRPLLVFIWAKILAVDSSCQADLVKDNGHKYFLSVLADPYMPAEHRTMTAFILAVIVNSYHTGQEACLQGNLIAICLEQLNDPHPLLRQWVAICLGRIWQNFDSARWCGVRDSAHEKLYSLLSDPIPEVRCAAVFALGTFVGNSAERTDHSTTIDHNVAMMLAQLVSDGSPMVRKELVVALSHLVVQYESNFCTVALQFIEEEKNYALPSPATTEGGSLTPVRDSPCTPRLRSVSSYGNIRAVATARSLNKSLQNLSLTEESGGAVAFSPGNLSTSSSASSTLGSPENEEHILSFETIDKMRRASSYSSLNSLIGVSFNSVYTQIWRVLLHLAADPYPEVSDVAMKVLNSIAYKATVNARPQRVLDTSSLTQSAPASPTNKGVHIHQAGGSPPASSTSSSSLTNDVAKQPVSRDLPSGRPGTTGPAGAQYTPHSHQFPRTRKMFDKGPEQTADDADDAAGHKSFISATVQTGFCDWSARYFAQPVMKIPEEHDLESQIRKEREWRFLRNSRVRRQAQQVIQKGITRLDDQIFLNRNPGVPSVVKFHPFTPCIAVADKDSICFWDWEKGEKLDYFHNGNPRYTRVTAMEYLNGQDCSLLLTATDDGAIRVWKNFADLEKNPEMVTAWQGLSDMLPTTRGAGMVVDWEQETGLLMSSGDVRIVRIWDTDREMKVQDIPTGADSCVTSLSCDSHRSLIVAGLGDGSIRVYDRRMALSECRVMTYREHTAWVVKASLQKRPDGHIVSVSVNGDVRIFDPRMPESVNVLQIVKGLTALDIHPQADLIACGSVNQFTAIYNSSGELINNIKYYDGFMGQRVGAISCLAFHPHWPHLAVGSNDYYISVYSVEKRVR

B1: full-length LST2 F401A (natural protein, UniProt Q9HCC9 1-887, looked up)
chain: MMNRFRKWLYKPKRSDPQLLARFYYADEELNQVAAELDSLDGRKDPQRCTLLVSQFRSCQDNVLNIINQIMDECIPQDRAPRDFCVKFPEEIRHDNLAGQLWFGAECLAAGSIIMNRELESMAMRPLAKELTRSLEDVRGALRDQALRDLNTYTEKMREALRHFDVLFAEFELSYVSAMVPVKSPREYYVQQEVIVLFCETVERALDFGYLTQDMIDDYEPALMFSIPRLAIVCGLVVYADGPLNLDRKVEDMSELFRPFHTLLRKIRDLLQTLTEEELHTLERNLCISQDVEFPIRADVQGPAALAPALSAPLPPEGPLSAKAKDPDAELACSMQYDDQELEQLSRMVHRAGDEMSSLLSPPIACQSPAHRPGAEGSPGGEASPGRPRLRSGSDEEERVAFMDDVEGTAEALARPESPAGPFGWAGSTWADPQEKGQGGPGGAAGISLPASEKEEDLSNNNLEAEGTDGASLAGTSSCSCLDSRLHLDGWEVGADDAETAEMIAHRTGGMKLSATVIFNPKSPTSLDSAVATQEAASEPVAEGMDGGPHKLSTGATNCLLHSCVCCGSCGDSREDVVERLREKCSPGGVIGASYAAGLAKASDRAPERQEEAPPPSEDASNGREPKAPTSDKCLPHTSGSQVDTASGLQGEAGVAGQQEPEARELHAGSPSAHEAPQALSGSSSSTAGSCSSDKMGPEAAPAATHAAPQATREKIRSRFHGSHDLIHRLFVCISGVADQLQTNYASDLRSILKTLFEVMATKPETDDKEKLRKVTQTLRSAALEDCALCQETLSSSELAAKTRDGDFEDPPEWVPDEACGFCTACKAPFTVIRRKHHCRSCGKIFCSRCSSHSAPLPRYGQVKPVRVCTHCYMFHVTPFYSDKAGL
notes: LST2 (ZFYVE28), full length, with F401A in the TOS motif; Tags and host in SI Appendix; also called TOS-deficient LST2-F401A; source: purified
With B1, the “fold reduction of binding against LST2-WT” value in assay [1] was 9 fold.

B2: FITC-labeled LST2 TOS peptide including flanking residues (amino acids 395 to 407) (peptide, UniProt Q9HCC9 395-407, looked up)
peptide: {FITC}-DEEERVFFMDDVE
notes: also called LST2 TOS peptide WT; FITC-labeled peptide; source: synthetic peptide
Turning to B2, in assay [2], the Kd (commonly the constant that tells how readily two partners part at equilibrium) amounted to 330 nM.
